This data set can be described thus: protease stability score; higher = more stable; yeast display proteolysis, trypsin and chymotrypsin.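 Further: log10 excess protease needed over predicted unfolded state with 0 meaning unfolded.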
“DEDDLERKDEEFQRLMKTGNFEELAQQADKDVRVQIGDKQLHGRRQIKKYQEEMQRKADHFDVKRVDIQGDTVDAVIENRHNGHHQVVRIQVNMHNGTIKEVTIHSS”: the protease stability score was -0.02.
The same measure for “DEDDLETLLKKIIDAMRNGDPKQMMRLVDENAKLVVGDKTVHGREEVSKWMKELRRQVDDNDYKDFHVQGDKARIDHFVNINGTNTERVIDIEVHNGRVKRLVYHEK”: 0.159.
Turning to “DEDDLQRKVERINSALQTNDEDEFVRQLDEDAKISVGDKTVHGQEKAREWVQDLRRTVDHIRVDHVKVHNGRAHVTMKAVVNGKNVEITMQMTLHNGKVKEMRIDPEDVEKLEG”, the protease stability score was determined as 0.807.
As for “DEDDLRHVEKVLRENDEDTFAEMADEDVSADIGDKTLTGREEVKKMLQKLHKQADHVEIKSVTNRGDNVKVDMVMNYNGRNLRFSRSAEFTNGRIKHVSIRVTSEEDQDVLQRLLD”, the figure is 0.811.
As for “DEDDLRRAQKDLQQNDFHKIARDADENVRVRIGDTTYHGRETLISFLKEMQDRADHVSIKHISVEGDKITADFEMQVDGKTDTFDLFIVVHNGRYQHVHFEVRSEDFSKFMREIES”, the figure is 1.02; as for “DEDDLRRIIKEFQKALKTGDTDEIRRQIDPNAHARYGDKEVHGREQLLSRLDELMNNVDHMQIDDLTFRGDKATVDFVMNHNGHERRHILHMVVHNGTIKSAHLDDS”, 1.01.
The same measure for “DEDDLRRLAEDFVRVLKTGDEDRLSELFDPNAKVSVGDHEYHGSENIVRALVEFARRVDELEVNSITIENGRVKIDAFATVNGKRVSVIIEIQYHNGRAKYVEFKYTSEEENRRFKN”: 0.466.
For “DEDDLRRRANEVAEVLHDNDEESMKSLVDPNADIEIGDKRLHGRDDMEKWMQERKRRVDHLTLHSFNVHNGRVDIDARVEVNGQQERYRMVVEFHNGVAKHINFTST”, the protease stability score is 0.569.
The same measure for “DEDDLVRQMVDRAEEAAQTGDEKKFANLFDPNARFRYGDKDVHGREEWEKRLDEERKRADRLHIKFDSVRVHGDKVDLHFTWRVVVNGESSERVVIIHAVKQGDRIVAKYVREG”: 0.611; for “DEDDMRKWEELMRAFETGDEKKATELVDPNATFKVGDKTYHGREHFIKDLFTKVKEIHIQMRIRDIQQSGDFAVVHLVKSNHNNGKPNSDVAVVLVRMDNGKLKYVQETKDQ”: 0.587.
The same measure for “DEDDMRRLEQLFRDIQTGNPERVRTLVDKNAELRVGDKRIKGREDVHRSVKKNRDEIRYSIDRLSADVKGDQVEMTVTAQKEHNGEPRSFKFTMTAKFRNGKLQHLDVHEEK”: -0.297; for “DEDDNKIAKEWYKAIQRGDPDRVKQLVDPNVKIRIGDKDIRGRENFATEVERMRDEIEVVFKVKDMKDQGDKANVEYEYQTQSNGRPRTKSQTVNVSMHNGHVKHVNVRDDQ”: -0.301; for “DEDDNRKMHKLMETGDFEKIAHHADPNAHAKYGDKTVTGKEELKSVFTKFNRAVDHVQVQDVRIRGDKVTLDAEVNVNGQTVQVTVSARAHNGQIKHFKIQARDEQIQRDIKDALE”: 0.845.
Sequence “DEDDQERKLRKIAKNITKGDKTSLLKMVDKDAKASVGDKTVEGDNQLKRVMEERTRRIDHLDLKDVKVTGNTLVVHYVIHHNGKNKHQVAFVVLDNGRIKSMSFHDG” registered a protease stability score of -0.08.
As for “DEDDQKLITEFLKALERGDPDRLLENADPNASARVGDKDVHGMHNAATDWVRERNSMDVTYDSVEIHVHNGRATIHLDAQFDFNGKPWRDTMTVEIVIRNGKIKDIIFRFDEQQLRDITK”, the figure is 0.714; as for “DEDDQKNFSQMLNALDTGDEKRVVELADPNAKVEYGDKTYSGMEKYAHDRAKQRKEWRYHQTIDKVNVKNGRVEIHMKANFKINGQPRSMRFSVTVEAHNGKLKNLDFRFSEEDRKKLEG”, -0.024; as for “DEDDQLRKLLEEIVDALDRGNESELRNLMDKDVRVDVGDKTITGRENAAEFLIRLANEADEIDINITDLKVDNGNISLRFQLHLHHNGRNVTRQVTIVIDRKGDELKVKYIRMS”, 0.031.
For the sequence “DEDDQRRKAETLVRQISTGNPDDLKKMVDPNVKVKVGDKEYHGREEMAKDIKHIEDAVDHLEVKSVDAHNGRIDIVIVMHINGTRVHMRVEFQLNNGKVKSAERRYTDQDQKNTFER”, the protease stability score was -0.39.
The same measure for “DEDDQVRKILETQDRAMRTGDEDTYVNQADKDVRVKVGDKKLRGREEWKKEVTRIIERVDHFDVHIDHIDHQGDKIVIRQVIVLEHDGRRDSKTYNMTARNKNGRVKWKEVTEK”: -0.205; for “DEDDRKRVAKEFMDNLNTGNEDEALKLADKDARLRYGDKTLHGREQIKDWLHTLRERIDSIEVHRIEVQGDKVRVRASVVINGKEEMVDINFRMSNGRLEKVTFDPRLDEMLKG”: 1.44.
Sequence “DEDDRRRQARKLASALVTGNHQEVRELADKDVHAEYGDRRYRGREKLDEAAKDMHKQADSLTVRDVKFTGDKVNIDLQLNINGRRLTVSLTAQLENGRFKEIVVQVTDPETLRHVKQ” had a protease stability score of -0.03.
As for “DEDDVDRVRNLIHALNKGNPDDVNNQADENVRFVIGDKTFHGKETLRTRIEEQKSHSRYQVDSVHAEARNGQVEVHVNMTMTENGQPRKNTYEIQARVHNGRVKDFRMTESR”, the figure is -0.336; as for “DEDDVNKAHNILKHGDWEKFASQADENVRIHIGNKEVNGRERASEVLKLIRDRVDSEEIKRMSFHGDKVVVDAEQVVNGKKVRFVIRVKAHNGRIKQMDFQFRNEEDKKKFDEAVN”, 0.477.
Take “DEDDVQHAQKLVEENDEDKLKRMFPPDARAHIGDKEVHGMDKWADILKTLHHKADSVHFKHVSVSGNSVNVNFVMVVDGQSIEFVLVIDVHNGRARRLRIDFRNEEQQKLFEKLIS”: the protease stability score is 1.3.
Take “DEDDVRRVAEQIVQALEKGDEQRMMELADPNAKARVGEKDYHGREDLHKIVKELKDDFDHARVESVEVDGDKVVIHMVVKSNGKDRRMIIRFRVHNGKVTEMEFRTG”: the protease stability score was 1.75.
As for “DEDDVRRVHEMIRAEETNNEHQVKDLMDENARMVVGDQEITGMDHILKFIRETNKEIDIELRLRDVKVSNGNVHVTARVRFTVNGKPVDRSAKMEVQVENGRIQDVQKRFPTEWKRERHK”, the figure is -0.03.
As for “DEDDWKKFMKFLKNLRNGDDEQAAKQADPNARFEYGDETIHGREHFRKHVKDTKDHARYSFNLKDYRVTPGRIEARMDVHSMENGRPDSNDVVLILSLSNGRIKKVEMKQVS”, the figure is 0.063; as for “DEDDWRKRMKKVVEVLRTGNPDTMVDMVDENAKAKYGDKEYHGREQIHKWMEDRQKRYDHVNVKHMHIQGNKVNISAVYVVNGRSEDRQLQVVFDNGKIKSMRVTEQ”, -0.053; as for “DEDEARKVMKKWQEVVQKGDPDDVRKLYKPNVKWEAADTRRQGVDVVVEQMKKVQDKGVEFQVRKAKVEGDRFQVVYDVKLGNDTATFTVQVEARGGQIDEVRAKVDEKAYKVMKKG”, 0.123.
The same measure for “DEDEARTWANRMRKIIKEGDPKKMRHQLDKDAKAQVGDDTVHGRDKVVQLLQHILEHVDHVEIQHVEAQGNEVDIQVKLTVNGRDDSLKFDIKYHNGRVKTIRVQEQ”: -0.084; for “DEDEATKVATNMQEILETGNPDEAAKLADKDVRVVVGDKDVHGSENLKDMMRELRERADHLRVVDMHSHGEKFVLLVIIEHNGRRHQVNIVMTIDNGRIKSLSITSG”: 1.87; for “DEDEDDKMRKLIKTNNPQEIAQNADPNVEATVGNKTYHGREQMQQIAEIFRTMADHVHVDRVDADNGHVSAHRVITVNGHKVNVKVRFNISNGRIKRQEIDVTSEQDHRELEKNYN”: 0.162.
Turning to “DEDEDIRSWMKQFEEVVKTGDSKHAADMFDKNAKMQYGDKTYHGRDDVKSVLDHLLRRADHVRLELLDVKSNGESVHAVMLITFVVDGQTDSYHVELVFVVDNGRRNLHTATTK”, the protease stability score turned out to be 0.872.
The same measure for “DEDEDKRIQEVLEQNDFETLSKQADENAKVQYGDTEVHGRRKAYEYLRRLKRSIDHIHYHSIHVHNGRAKMTAEAHFNGRKAVFIVVLQFENGRIRMVVFRATDSRIKKIIKEALN”: 0.988.
Sequence “DEDEEETLAQTWIKLMETGDPEQNMENVDPNVKVTYGDKTLHGREQFSDWEKKLHERVDRIEIKKMDVHNGSIRIVVVNDVNGKTKRFVVHLIYENGRLKSAKETDQ” came in with a protease stability score of 0.413.
The same measure for “DEDEEKRIRKYIKQQETGDPDKLNKYFDKDVHLHVGDKEVKGDEQANRELEHKFRKLRYSFEVKKLEVSNGKVEVKYHATVESNGKPHTYEVSADATLHNGRLQSQVNNERG”: -0.021; for “DEDEERDFEEMWKVFHKGNPDDYKKMIDKDVEIRIGDKTVHGREEIVRQVHHEMNNINFQLQSVDIRVTNGRVEIDVRYVSNVNGRPDTIRYTYHASASNGKLKTAEYRISEDQQNRHRR”: -0.273.
For “DEDEERKAVERFLDALKTGDPDKFKKLVDPNVNIQVGDKEINGREQYAHEVHRRKKRADHLEVEHVNVKNGKVQIFVVINVDGRSHHYVLDAHIHNGRIVEMKVEHQ”, the protease stability score was 0.08.
As to “DEDEERKVVHSIMHALEKGDEQKAVDLMDPNVKVIIGDKEISGRERVRDVAQELRKRIDHLRVKTLDVKNGQARAVAEVEHNGQERRIEFNMQLDNGRVKDMRIQER”, the protease stability score was 1.09.
The same measure for “DEDEERQFAKDLMRAMEKNDPKLLVKLADKDVSINYGEKQVHGKRQAEQLMRDLHKRVDDIKVRHVSMHNGSLTINLVLNVNGHNENLVAIVRVENGRIKSLTFEHR”: 0.861; for “DEDEKMKRAMKKLNEVQNTGNEKTLANLMDPNARMDIGDKRYHGREQVTTAVKDIQRRVDHVEWRLTDLKQDGDKLDAKADVIFRTNGTQTNRHADMKLRDVNGQLVIVEYVIS”: -0.093; for “DEDEKRELARRFAKNFLHGDHDNIRDLADKDVDAQVGDQTFTGTEQLMRVVKEVRDRVDHFNLTSVDVHNGQADIHARAKVNGRDYRVKIRIKIHNGRILHVQFNRR”: 1.18.
The same measure for “DEDEKRKAEHLVRDGSFEELKDLMDENAKVRYGDKEFKGREQAQDAMRQMSRAVDSITVKSLDMQGDTVTARAQLTYNGQHYDVVIQMVVNNGRIKQFVVVVRDPKQKRTLENLRQ”: 0.567; for “DEDEKTKLAEQAKDILQEGNFHEMMHLADENAKVVYGDRRYDGREKVHKVLRDFDDRVDKIDVKRVRVENGRAKIVADVEHDGQRTTVIIHIQAHNGKIRRIRFHTP”: 0.586.
As for “DEDEKVRQLVRDLIEALRTNDQKRWVELADKDARLKVGDKSYHGREELAKQMKKLREHVDHVTMRVKRVEVHNGRISVDATLTYDINGKKNHQTVKMQFRRHNGQIRLVQIEME”, the figure is 0.174; as for “DEDELAQKLVEQMVKAIRHGDPHDFVKMIDKNATMDVGDKRLHGREKLEEFIKKLVDKYDHLDAKVSHMDLDNGQIKVNIEIHLVKNGKTDHITLDARADVTNGDARFVDFQWR”, 1.47.
“DEDELQRFAEQVNRVVRQGDPKQAERLFDENARVQIGDKTYHGREDISKMIENQRRRVDHIKVRRIDVQGNELVIHLVYNVNGQEHRNVLVFELHNGKIESAHRTDG” came in with a protease stability score of 0.959.
The same measure for “DEDEMKNVLELIRVMSKGDEDRIRERADPNVKVNIGDKRLQGREELARQASTEKKKMDIHIRVDSVHVHDGNVLIVYKRENHYNGEPNRDEQRFQAQASNGNLKNMSWRFDEDKKRKIET”: -0.038.

The values are drawn from the NTF2 design screens of Basanta et al. (2020).
